Measurements from US20230242675A1 (SHANGHAI EPIMAB BIOTHERAPEUTICS, published 2023).

T1: human TGFβ2 (human, UniProt P61812 303-414)
T1 construct: also called TGFβ isoform 2; TGFβ2 (Cat. No. CJ79, Novoprotein)
T1 sequence (looked up): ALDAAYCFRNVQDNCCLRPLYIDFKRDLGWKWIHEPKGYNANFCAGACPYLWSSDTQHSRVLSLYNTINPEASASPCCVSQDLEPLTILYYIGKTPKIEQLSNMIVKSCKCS

B1: FIT1012-7a TGFβ/PD-L1 bispecific binding protein (bispecific antibody, human IgG1, kappa)
heavy: not shown
chain: TIPPHVQKSVNNDMIVTDNNGAVKFPQLCKFCDVRFSTCDNQKSCMSNCSITSICEKPQEVCVAVWRKNDENITLETVCHDPKLPYHDFILEDAASPKCIMKEKKKPGETFFMCSCSSDECNDNIIFSEEYNTSNPDASTKGPSVFPLAPSSKSTSGGTAALGCLVKDYFPEPVTVSWNSGALTSGVHTFPAVLQSSGLYSLSSVVTVPSSSLGTQTYICNVNHKPSNTKVDKKVEPKSC
light: DIQLTQSPSFLSASVGDRVTITCKASQDVGTAVAWYQQKPGKAPKLLIYWASTRHTGVPSRFSGSGSGTEFTLTISSLQPEDFATYYCQQYSSYPYTFGQGTKLEIKRTVAAPSVFIFPPSDEQLKSGTASVVCLLNNFYPREAKVQWKVDNALQSGNSQESVTEQDSKDSTYSLSSTLTLSKADYEKHKVYACEVTHQGLSSPVTKSFNRGEC
notes: Six-chain protein; anti-PD-L1 moiety from HuEM0005-90-1 with G55A; four TGFβR2(ECD) traps
B2: HuEM0005-90-19 (antibody, human IgG1, V domains shown)
VH: EVQLVQSGAEVKKPGASVKVSCKTSGYTFTSHSINWVRQATGQGLEWMGYMYIGNGYTEYNEKFKGRVTMTSNTSISTAYMELSSLRSEDTAVYYCAKITPVVAPYVMDYWGQGTSVTVSS
VL: DIVMTQSPSFLSASVGDRVTITCKASQDVGTAVAWYQQKPGKAPKLLIYWASTRHTGVPDRFTGSGSGTDFTLTISSLQPEDFATYYCQQYSSYPYTFGQGTKLEIK

Tests used:
[1] = target: T2, human PD-L1/His fusion protein (human, UniProt Q9NZQ7 19-239); test: BLI Octet Red, binding protein on AHC sensor, PD-L1-his in solution
Procedure: Sensors were then dipped into running buffer (1×pH 7.2 PBS, 0.05% Tween 20, 0.1% BSA) for 60 seconds to check baseline. Binding was measured by dipping sensors into a series diluted concentration of recombinant human PD-L1-his protein. Dissociation was followed by dipping sensors into running buffer for 1200 seconds. The association and dissociation curves were fitted to a 1:1 Langmuir binding model using ForteBio Data Analysis software (Pall). The equilibrium dissociation constant KD (M) of the reaction between antibodies and related target proteins was then calculated from the kinetic rate constants using the formula KD=koff/kₒₙ.

human TGFβ1 = target: T3, human TGFβ1 (human, UniProt P01137 279-390); test: ELISA: human TGFβ1 coated (1 µg/ml), binding protein titrated 0.0006-10 nM, anti-human IgG Fc-HRP, OD450
T3 construct: also called TGFβ isoform 1; TGFβ1 (Cat. No. CA59, Novoprotein)
Procedure: (§1) Accordingly, each of the wells of the ELISA microplates provided a reaction mixture to test the ability of a particular binding protein at a particular concentration to bind to a particular TGFβ isoform. […] Plates were washed three times in washing buffer (PBS containing 0.05% Tween 20) and blocked for 1 hour at 37° C. with 200 μl per well of blocking buffer (1% BSA in PBS containing 0.05% Tween 20). […] The wells containing the various binding mixtures were incubated at 37° C. for 1 hour to permit binding to TGFβ protein on the surface of the wells. Thereafter, the wells were washed four times with washing buffer, and anti-human IgG Fc HRP (Sigma, Catalog No. A0170) was diluted 1:10000 and added to the wells at 100 μl per well to detect binding protein that was bound to TGFβ protein present on the surface of a well. The plates were incubated for 1 hour at 37° C. and washed four times with washing buffer. 100 μl of tetramethylbenzidine (TMB) chromogenic solution were added per well. Following color development, the reaction was stopped with 1 N HCl, and absorbance at 450 nm (OD450) was measured on a VARIOSKAN™ LUX microplate reader (Thermo Scientific™).

human TGFβ2 = target: T1, human TGFβ2; test: ELISA: human TGFβ2 coated (1 µg/ml), binding protein titrated 0.0006-10 nM, anti-human IgG Fc-HRP, OD450
Procedure: as §1

[2] = target: T4, biotinylated human PD-L1 protein (ACROBiosystems, H82E5) (human, UniProt Q9NZQ7 19-238, biotinylated (site not stated)); test: dual-binding ELISA: human TGFβ1 coated, 5 nM binding protein bound to it, biotinylated human PD-L1 titrated 0.0006-10 nM (axis labelled Ab (nM)), streptavidin-HRP, OD450; the EC50 is of the titrated PD-L1
T4 construct: also called biotinylated PD-L1
Procedure: (§2) Briefly, ELISA plates were incubated overnight at 4° C. with 100 μl of a human TGFβ isoform diluted in PBS buffer, pH 7.4, at 1 μg/ml, to allow the human TGFβ isoform to coat (adsorb to) the surface of the wells. Plates were washed three times in washing buffer (PBS containing 0.05% Tween 20) and blocked for 1 hour at 37° C. with 200 μl per well blocking buffer (1% BSA in PBS containing 0.05% Tween 20). […] The wells were washed four times with washing buffer, and Streptavidin-HRP (Merck, RABHRP3) was diluted 1:10000 and added to the wells at 100 μl per well. The plates were incubated for 1 hour at 37° C. and washed four times in washing buffer. 100 μl of tetramethylbenzidine (TMB) chromogenic solution were added per well.

[3] = target: T4, biotinylated human PD-L1 protein …; test: dual-binding ELISA: human TGFβ2 coated, 5 nM binding protein bound to it, biotinylated human PD-L1 titrated 0.0006-10 nM (axis labelled Ab (nM)), streptavidin-HRP, OD450; the EC50 is of the titrated PD-L1
Procedure: as §2

[4] = target: T4, biotinylated human PD-L1 protein …; test: dual-binding ELISA: human TGFβ3 coated, 5 nM binding protein bound to it, biotinylated human PD-L1 titrated 0.0006-10 nM (axis labelled Ab (nM)), streptavidin-HRP, OD450; the EC50 is of the titrated PD-L1
Procedure: as §2

[5] = target: T2, human PD-L1/His fusion protein; test: BLI off-rate; test group 4
Procedure: (§3) Briefly, antibodies were characterized for affinities and binding kinetics by Octet®RED96 biolayer interferometry (Pall ForteBio LLC). Antibodies were captured by Anti-hIgG Fc Capture (AHC) Biosensors (Pall) at a concentration of 100 nM for 30 seconds. Sensors were then dipped into running buffer (1×pH 7.2 PBS, 0.05% Tween 20, 0.1% BSA) for 60 seconds to check baseline. Binding was measured by dipping sensors into a single concentration of recombinant human PD-L1/His fusion protein (Novoprotein). Dissociation was followed by dipping sensors into running buffer for 1200 seconds. The association and dissociation curves were fitted to a 1:1 Langmuir binding model using ForteBio Data Analysis software (Pall). […] The off-rate ratio serves as a data normalization. Accordingly, in each test group, the off-rate ratios of the humanized antibodies can be compared with that of the chimeric antibody, and the off-rate ratios of each of the humanized antibodies can be compared to one another within all test groups.

[6] = target: T2, human PD-L1/His fusion protein; test: BLI Octet RED96, antibody on AHC sensor, single conc. PD-L1/His; test group 4; test group 4
Procedure: as §3

T4 sequence (Q9NZQ7 19-238 limits assumed): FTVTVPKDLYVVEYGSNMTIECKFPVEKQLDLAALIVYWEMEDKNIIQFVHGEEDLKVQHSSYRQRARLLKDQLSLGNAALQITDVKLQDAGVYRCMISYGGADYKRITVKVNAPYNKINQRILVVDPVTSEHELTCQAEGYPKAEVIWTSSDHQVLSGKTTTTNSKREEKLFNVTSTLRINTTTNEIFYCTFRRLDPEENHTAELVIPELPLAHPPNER
T2 sequence (Q9NZQ7 19-239 limits assumed): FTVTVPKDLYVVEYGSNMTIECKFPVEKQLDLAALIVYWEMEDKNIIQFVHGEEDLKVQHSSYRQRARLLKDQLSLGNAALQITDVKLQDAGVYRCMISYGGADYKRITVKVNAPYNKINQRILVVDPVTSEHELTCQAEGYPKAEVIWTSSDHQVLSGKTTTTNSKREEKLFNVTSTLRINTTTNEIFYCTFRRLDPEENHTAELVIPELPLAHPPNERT
T3 sequence (P01137 279-390 limits assumed): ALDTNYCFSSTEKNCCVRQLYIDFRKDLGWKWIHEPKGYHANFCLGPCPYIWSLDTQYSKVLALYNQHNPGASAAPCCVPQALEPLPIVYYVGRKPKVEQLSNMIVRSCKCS

Row | Binder | Kd [1] [nM] | EC50 (human TGFβ1) [nM] | EC50 (human TGFβ2) [nM] | EC50 [2] [nM] | EC50 [3] [nM] | EC50 [4] [nM] | Off-Rate Ratio to that of EM0005-90c [5] [%] | koff [6] [s⁻¹]
1 | B1 | < 0.01 | 0.374 | 0.833 | 0.275 | 0.262 | 0.262 |  | 
2 | B2 |  |  |  |  |  |  | 146 | 0.00328
